Patent CN112480260A (FUZHOU MAIXIN BIOTECHNOLOGY DEV CO LTD, dated 2021)

Biological target: 重组PSMA蛋白片段 (human PSMA residues 307-750 with β2M and His tag, expressed in E. coli) (human, UniProt Q04609 307-750)
Assay: indirect ELISA, PSMA protein coated at 100 μg/ml, antibody titrated from 2000 to 0.625 ng/mL; affinity constant from the antibody concentration at half of the plateau OD

重组PSMA蛋白片段 (human PSMA residues 307-750 with β2M and His tag, expressed in E. coli), sequence (Q04609 307-750): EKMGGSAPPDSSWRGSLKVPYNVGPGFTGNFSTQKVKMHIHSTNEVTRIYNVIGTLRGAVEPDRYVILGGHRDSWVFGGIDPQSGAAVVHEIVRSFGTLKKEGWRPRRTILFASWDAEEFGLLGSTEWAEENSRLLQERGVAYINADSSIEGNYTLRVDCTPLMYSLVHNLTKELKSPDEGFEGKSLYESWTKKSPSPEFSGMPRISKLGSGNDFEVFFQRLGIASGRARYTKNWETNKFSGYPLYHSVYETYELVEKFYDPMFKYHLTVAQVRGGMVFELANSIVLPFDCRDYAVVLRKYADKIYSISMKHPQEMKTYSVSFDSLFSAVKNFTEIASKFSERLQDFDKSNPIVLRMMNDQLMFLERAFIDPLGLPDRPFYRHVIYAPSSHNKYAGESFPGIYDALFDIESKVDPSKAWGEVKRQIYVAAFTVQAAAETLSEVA

B1: 抗PSMA蛋白单克隆抗体(11D1E5E10) (antibody, V domains shown)
VH: QVQLQQSGPELARPGASVKMSCKASGYTFTSYTIHWVKQRPGQGLEWIGYISPSSGYTNYNQNFKDQATLTADISSSTAYMQLSSLTSEDSAVYYCARSGYRYDWYFDVWGAGTTVTVSS
VL: DIQMTQSPSSLSASLGGKVTITCKASQDINKYIAWYQHKPGKGPRLLIHYTSTLQPGIPSRFSGSGSGRDYSFSISNLEPEDIATYYCLQYDNLWTFGGGTKLEIK
notes: also called CGMCC NO.19683; PSMA单克隆抗体
In the case of B1, the Ka is reported as 4.96e+09 M⁻¹.
